# From patent US20220332804A1 (CSL INNOVATION, published 2022)
# T1: human C2 E324A (human, UniProt P06681 21-752)
# T1 sequence: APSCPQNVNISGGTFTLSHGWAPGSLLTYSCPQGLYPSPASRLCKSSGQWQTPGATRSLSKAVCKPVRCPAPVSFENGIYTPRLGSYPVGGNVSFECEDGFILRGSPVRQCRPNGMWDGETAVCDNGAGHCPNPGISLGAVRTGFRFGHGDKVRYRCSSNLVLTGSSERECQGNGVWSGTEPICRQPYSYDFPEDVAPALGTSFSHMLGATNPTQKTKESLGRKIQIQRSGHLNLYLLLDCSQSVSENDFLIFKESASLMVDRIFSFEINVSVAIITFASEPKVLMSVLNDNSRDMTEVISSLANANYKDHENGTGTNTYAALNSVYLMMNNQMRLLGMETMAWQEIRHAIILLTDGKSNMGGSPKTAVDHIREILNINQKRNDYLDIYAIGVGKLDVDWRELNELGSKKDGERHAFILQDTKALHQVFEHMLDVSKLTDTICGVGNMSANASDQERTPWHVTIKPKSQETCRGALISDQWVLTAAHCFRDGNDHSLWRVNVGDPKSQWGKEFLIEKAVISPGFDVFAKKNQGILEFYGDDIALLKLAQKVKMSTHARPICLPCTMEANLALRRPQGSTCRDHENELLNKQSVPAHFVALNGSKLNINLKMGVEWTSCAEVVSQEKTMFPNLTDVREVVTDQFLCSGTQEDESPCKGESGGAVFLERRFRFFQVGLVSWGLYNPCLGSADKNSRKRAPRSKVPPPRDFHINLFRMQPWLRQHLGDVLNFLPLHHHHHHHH
# T2: human C2 A444S (human, UniProt P06681 21-752)
# T2 sequence: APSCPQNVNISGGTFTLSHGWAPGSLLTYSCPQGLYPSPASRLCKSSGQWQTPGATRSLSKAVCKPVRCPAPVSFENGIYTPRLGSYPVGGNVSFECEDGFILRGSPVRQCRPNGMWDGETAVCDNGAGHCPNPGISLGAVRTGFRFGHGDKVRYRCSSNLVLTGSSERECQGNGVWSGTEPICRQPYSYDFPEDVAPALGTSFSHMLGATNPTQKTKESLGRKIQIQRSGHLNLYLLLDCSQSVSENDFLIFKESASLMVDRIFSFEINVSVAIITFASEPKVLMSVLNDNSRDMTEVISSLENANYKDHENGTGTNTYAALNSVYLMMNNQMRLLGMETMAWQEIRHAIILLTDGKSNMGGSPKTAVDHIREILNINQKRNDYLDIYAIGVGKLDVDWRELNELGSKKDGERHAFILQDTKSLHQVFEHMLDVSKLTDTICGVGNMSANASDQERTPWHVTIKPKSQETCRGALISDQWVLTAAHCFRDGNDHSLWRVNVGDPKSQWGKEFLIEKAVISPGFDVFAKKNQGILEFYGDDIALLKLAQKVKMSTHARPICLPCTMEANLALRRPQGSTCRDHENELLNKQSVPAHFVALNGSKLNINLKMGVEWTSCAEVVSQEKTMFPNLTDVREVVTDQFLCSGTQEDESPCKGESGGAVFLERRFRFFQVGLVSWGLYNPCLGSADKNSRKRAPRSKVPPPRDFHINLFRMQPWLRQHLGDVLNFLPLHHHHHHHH
# T3: human C2 S456A (human, UniProt P06681 21-752)
# T3 sequence: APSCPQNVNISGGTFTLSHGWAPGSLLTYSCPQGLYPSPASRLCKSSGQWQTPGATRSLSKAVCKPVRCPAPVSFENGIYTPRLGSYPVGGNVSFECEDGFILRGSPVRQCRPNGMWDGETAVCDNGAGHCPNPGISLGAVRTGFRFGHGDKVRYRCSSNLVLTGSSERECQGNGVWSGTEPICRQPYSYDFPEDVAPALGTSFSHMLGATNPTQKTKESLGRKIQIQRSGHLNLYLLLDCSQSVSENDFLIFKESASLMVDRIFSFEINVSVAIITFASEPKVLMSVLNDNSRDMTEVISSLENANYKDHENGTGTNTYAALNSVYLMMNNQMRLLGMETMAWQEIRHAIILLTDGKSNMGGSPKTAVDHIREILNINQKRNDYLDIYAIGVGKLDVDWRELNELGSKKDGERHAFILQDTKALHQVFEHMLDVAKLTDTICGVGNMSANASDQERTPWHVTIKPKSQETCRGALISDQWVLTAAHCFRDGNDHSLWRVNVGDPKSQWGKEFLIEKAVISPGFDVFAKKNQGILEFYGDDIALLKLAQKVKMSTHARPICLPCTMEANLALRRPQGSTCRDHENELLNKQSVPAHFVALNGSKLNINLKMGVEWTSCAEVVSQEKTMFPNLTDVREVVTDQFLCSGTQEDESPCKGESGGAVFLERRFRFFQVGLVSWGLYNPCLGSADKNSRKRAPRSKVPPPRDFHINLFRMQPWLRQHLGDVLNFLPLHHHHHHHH
# T4: human C2 E476A (human, UniProt P06681 21-752)
# T4 sequence: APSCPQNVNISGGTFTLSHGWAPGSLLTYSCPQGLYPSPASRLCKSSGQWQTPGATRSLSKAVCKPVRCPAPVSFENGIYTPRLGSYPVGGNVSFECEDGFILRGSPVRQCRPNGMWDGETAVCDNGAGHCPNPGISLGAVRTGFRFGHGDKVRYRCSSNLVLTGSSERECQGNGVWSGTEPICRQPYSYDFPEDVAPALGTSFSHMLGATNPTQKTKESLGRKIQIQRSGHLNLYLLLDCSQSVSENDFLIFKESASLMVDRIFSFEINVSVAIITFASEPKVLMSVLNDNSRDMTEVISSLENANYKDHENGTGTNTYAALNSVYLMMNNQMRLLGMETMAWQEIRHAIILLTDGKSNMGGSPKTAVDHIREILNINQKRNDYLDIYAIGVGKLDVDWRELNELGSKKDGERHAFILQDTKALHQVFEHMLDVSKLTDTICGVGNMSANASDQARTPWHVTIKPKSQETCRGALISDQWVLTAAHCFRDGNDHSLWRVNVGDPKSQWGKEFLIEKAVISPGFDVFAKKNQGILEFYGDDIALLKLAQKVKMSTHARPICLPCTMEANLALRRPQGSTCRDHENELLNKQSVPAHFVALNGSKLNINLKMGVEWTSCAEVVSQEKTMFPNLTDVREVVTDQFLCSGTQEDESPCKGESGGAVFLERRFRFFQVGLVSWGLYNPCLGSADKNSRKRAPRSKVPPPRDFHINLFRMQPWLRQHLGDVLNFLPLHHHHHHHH
# Assays:
# Assay in all cases: SPR; KD relative to WT C2;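 note: biacore SPR at 37 °C, anti-C2 mAbs captured on an anti-human IgG chip, alanine or serine C2 surface mutants tested, KD from 1:1 fit compared with wild-type C2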
# human C2 E324A = biological target: T1, human C2 E324A
# human C2 A444S = biological target: T2, human C2 A444S
# human C2 S456A = biological target: T3, human C2 S456A
# human C2 E476A = biological target: T4, human C2 E476A
binder,measurement,setting,value
"RF16-214 (antibody, V domains shown) VH: EVQLLESGGGLVQPGGSLRLSCAASGFTFSWYQMMWVRQAPGKGLEWVSRIYPSGGGTAYADSVKGRFTISRDNSKNTLYLQMNSLRAEDTAVYYCARDAGYGDNWGQGTLVTVSS VL: QSALTQPPSVSVSPGQTASITCSGDKLGEKYASWYQQKAGQSPVMVIYQDRKRPSGIPERFSGSNSGNTATLTISGTQAMDEADYYCQAWDTRAVVFGGGTKLTVLG",Fold diff,human C2 E324A,1 fold
same,Fold diff,human C2 A444S,1 fold
same,Fold diff,human C2 S456A,5 fold
same,Fold diff,human C2 E476A,2 fold
